Results from patent US20260242478A1 (published 2026).
Where no end group is shown, it is not given here.

B1: Phage-2427 (peptide)
peptide: EYKWCVPIWMCAYD
modifications: cysteine pairing not given here; also: displayed as fusion to phage pIII
notes: Peptide-180 library clone, tested as clonal phage (peptide fused to pIII)
B2: Phage-2428 (peptide)
peptide: ADRLCIPPWMCEMK
notes: as for B1
B3: Phage-2431 (peptide)
peptide: VLKWCTPPWMCWDI
notes: as for B1
B4: Phage-2422 (peptide)
peptide: WTNTCIPMWMCEGF
notes: as for B1
B5: Phage-2426 (peptide)
peptide: LWMSCIPPWMCANV
modifications: cysteine pairing not given here; also: displayed as fusion to phage pIII
notes: as for B1
B6: Phage-2433 (peptide)
peptide: GDNWCKPAWMCRDM
notes: as for B1
B7: Phage-2424 (peptide)
peptide: LVNWCTPPWMCWHD
notes: as for B1
B8: Phage-2432 (peptide)
peptide: EVKWCIPNWMCAAS
modifications: cysteine pairing not given here; also: displayed as fusion to phage pIII
notes: as for B1
B9: Phage-2429 (peptide)
peptide: GEKWCIPEWMCVTT
notes: as for B1
B10: Phage-2421 (peptide)
peptide: EFKWCIPKWMCMVD
notes: as for B1
B11: Phage-2430 (peptide)
peptide: EIKWCTPPWMCTIG
notes: as for B1
B12: Phage-2434 (peptide)
peptide: EERWCIPEWMCSRI
notes: as for B1
B13: Phage-2423 (peptide)
peptide: LTNWCTPQWMCLGF
notes: as for B1
B14: Phage-2435 (peptide)
peptide: GINWCTPSWMCTGF
notes: as for B1
B15: Phage-2425 (peptide)
peptide: DENWCKPLWMCEGF
notes: as for B1
B16: Phage-2355 (peptide)
peptide: FENWCTPSWMCSGF
notes: Peptide-180 library clone, tested as clonal phage supernatant (peptide fused to the pIII filament of the bacteriophage)
B17: Phage-2354 (peptide)
peptide: NDHWCIPPWMCAPY
modifications: cysteine pairing not given here; also: displayed on bacteriophage by fusion to pIII
notes: as for B16
B18: Phage-2357 (peptide)
peptide: AERWCIPSWMCELA
notes: as for B16
B19: Phage-2358 (peptide)
peptide: PVKWCVPPWMCAAT
modifications: cysteine pairing not given here; also: displayed on bacteriophage by fusion to pIII
notes: as for B16
B20: Phage-2347 (peptide)
peptide: SENWCIPNWMCSGL
notes: as for B16
B21: Phage-2353 (peptide)
peptide: SEEWCIPPWMCLGR
notes: as for B16
B22: Phage-2348 (peptide)
peptide: MEKWCTPSWMCQWM
notes: as for B16
B23: Phage-2356 (peptide)
peptide: VPKWCTPTWMCIHM
notes: as for B16
B24: Phage-2351 (peptide)
peptide: PMKWCIPEWMCIAS
notes: as for B16
B25: Phage-2352 (peptide)
peptide: IDHWCTPAWMCRGF
notes: as for B16
B26: Phage-2350 (peptide)
peptide: MDRWCIPEWMCARH
modifications: cysteine pairing not given here; also: displayed on bacteriophage by fusion to pIII
notes: as for B16
B27: Phage-2349 (peptide)
peptide: LSNWCVPLWMCEMV
notes: as for B16

biological target: T1, PSMA Fab (biotinylated (site not stated)); experiment: clonal phage ELISA; biotinylated PSMA Fab on neutravidin plate; anti-M13 HRP detection; blocking buffer alone
T1 construct: Biotinylated PSMA Fab captured on neutravidin plates in the phage ELISA; also called Anti-PSMA Fab; 006 PSMA Fab

Binder	Phage binding ELISA signal, Anti-PSMA Fab
LERWCIPSWMCTED [Phage-2445]	1.3
VVHWCTPAWMCYDM [Phage-2441]	1.3
MPKWCTPSWMCSPS [Phage-2436]	1.31
EEPWCIPSWMCALT (cysteine pairing not given here; also: displayed as fusion to phage pIII) [Phage-2449]	1.29
GAIWCIPQWMCAWN (cysteine pairing not given here; also: displayed as fusion to phage pIII) [Phage-2443]	1.3
IEKWCTPPWMCLDH [Phage-2447]	1.29
PAKWCVPSWMCSEI [Phage-2440]	1.31
EMNWCIPAWMCEGR [Phage-2437]	1.31
LHKLCTPTWMCEGF [Phage-2442]	1.3
EAKWCIPNWMCEMA [Phage-2438]	1.31
ESKWCIPEWMCEQR [Phage-2448]	1.29
MPKWCTPSWMCAVQ (cysteine pairing not given here; also: displayed as fusion to phage pIII) [Phage-2439]	1.31
VVKWCTPPWMCSVW [Phage-2450]	1.29
YEKWCTPTWMCSWL [Phage-2446]	1.29
EVKWCIPAWMCVED [Phage-2444]	1.3

biological target: T2, PSMA Fab; experiment: phage ELISA; biotinylated PSMA Fab on neutravidin plate, clonal phage supernatant, anti-M13 HRP; no PSMA antigen
T2 construct: Biotinylated and captured on neutravidin coated plates in the phage ELISA; also called 006 PSMA Fab; Anti-PSMA Fab
Procedure: (§1) Clonal phage were harvested as crude supernatants and screened via standard ELISAs. […] Prior to the addition of clonal phage. wells were incubated with blocking buffer and PSMA antigen or blocking buffer alone. Without washing or aspirating, clonal phage supernatants were then added to the wells and incubated for a short time. Wells were then washed followed by detection of bound phage using a horse radish conjugated anti-M13 antibody.

Binder	phage binding ELISA signal
B1	1.33
B2	1.33
B3	1.32
B4	1.33
B5	1.33
B6	1.32
B7	1.33
B8	1.32
B9	1.32
B10	1.33
B11	1.32
B12	1.32
B13	1.33
B14	1.31
B15	1.33

biological target: T1, PSMA Fab; experiment: clonal phage ELISA; biotinylated PSMA Fab on neutravidin plate pre-incubated with PSMA antigen as competitor; anti-M13 HRP detection;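 further: crude clonal phage supernatants briefly incubated on wells preloaded with PSMA antigen in blocking buffer, or buffer only as control, bound phage detected with HRP-conjugated anti-M13 antibody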
Procedure: as §1

Binder	Phage binding ELISA signal, Anti-PSMA Fab in presence of PSMA
LERWCIPSWMCTED [Phage-2445]	0.0674
VVHWCTPAWMCYDM [Phage-2441]	0.0623
MPKWCTPSWMCSPS [Phage-2436]	0.0576
EEPWCIPSWMCALT (cysteine pairing not given here; also: displayed as fusion to phage pIII) [Phage-2449]	0.0689
GAIWCIPQWMCAWN (cysteine pairing not given here; also: displayed as fusion to phage pIII) [Phage-2443]	0.132
IEKWCTPPWMCLDH [Phage-2447]	0.0663
PAKWCVPSWMCSEI [Phage-2440]	0.0676
EMNWCIPAWMCEGR [Phage-2437]	0.0633
LHKLCTPTWMCEGF [Phage-2442]	0.0712
EAKWCIPNWMCEMA [Phage-2438]	0.0622
ESKWCIPEWMCEQR [Phage-2448]	0.0688
MPKWCTPSWMCAVQ (cysteine pairing not given here; also: displayed as fusion to phage pIII) [Phage-2439]	0.0845
VVKWCTPPWMCSVW [Phage-2450]	0.104
YEKWCTPTWMCSWL [Phage-2446]	0.218
EVKWCIPAWMCVED [Phage-2444]	0.0892

biological target: T3, PSMA Fab; experiment: clonal phage ELISA on captured PSMA Fab pre-incubated with PSMA antigen (competitor: PSMA)
T3 construct: also called Anti-PSMA Fab; 006 PSMA Fab
Procedure: as §1

Binder	Phage binding ELISA signal, Anti-PSMA Fab with PSMA antigen
B16	0.0807
B17	0.0707
B18	0.0756
B19	0.0663
B20	0.0725
B21	0.0756
B22	0.0828
B23	0.0649
B24	0.102
B25	0.0775
B26	0.0537
B27	0.0796

biological target: T2, PSMA Fab; experiment: phage ELISA; biotinylated PSMA Fab on neutravidin plate, clonal phage supernatant, anti-M13 HRP; wells pre-incubated with PSMA antigen as competitor
Procedure: as §1

Binder	phage binding ELISA signal
B1	0.0826
B2	0.0685
B3	0.123
B4	0.0808
B5	0.137
B6	0.0728
B7	0.0827
B8	0.077
B9	0.0637
B10	0.0948
B11	0.102
B12	0.0557
B13	0.0731
B14	0.0711
B15	0.0991

biological target: T3, PSMA Fab; experiment: clonal phage ELISA on biotinylated PSMA Fab captured on neutravidin, anti-M13 HRP detection;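 further: crude clonal phage supernatants added to wells pretreated with PSMA antigen in blocking buffer or with blocking buffer only, then briefly incubated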
Procedure: as §1

Binder	Phage binding ELISA signal, Anti-PSMA Fab
B16	1.42
B17	1.42
B18	1.42
B19	1.42
B20	1.43
B21	1.43
B22	1.43
B23	1.42
B24	1.43
B25	1.43
B26	1.43
B27	1.43
